Test results reported in patent US20260117244A1, “INHIBITORY RNA FOR THE CONTROL OF PHYTOPATHOGENS” (priority 2021, published 2026).

System: G. orontii MGH1
Test: Spray-induced gene silencing (SIGS), G. orontii spore production on A. thaliana (whole plant and detached leaf assays)
Type: in vivo, Golovinomyces orontii
Settings: topical dsRNA against G. orontii target (Gor Seq ID), n>=3

| Molecule | G. orontii Spore Production on Arabidopsis, Whole Plant Assay, % reduction | G. orontii Spore Production on Arabidopsis, Detached Leaf Assay, % reduction |
| --- | --- | --- |
| 122 (nucleic acid, listed as Golovinomyces orontii, listed as DNA) ATGAAAGCCAAACACCTAATTCTGACCATAGCGCTTGCGGCTACTGCGAGGGCAGAAGATCAATATGATGCTTCTGAACTACCACAGTTGAAACATCAGCAGTTAAGAATACCTTTTCCGACAGCTATTGCTGAATCGAAGTGCAGCTGTGCCACTGAATATATAACATCTACAGGCGAGGGTTTTCTTTATACTGCTGATGTATCATCAATTACCAAAAATTTTGATCCGCAACCGACTCACGAGTATCCTCTAATCGTTGAACCATCCATATCCGTTAATTGTCCGCCCCCGTCCACCATTACTGTAACCGAGACAAAATATATTACTTTGATGCCTGATCTAGCACCATCTGATCCTGCTAGTCCGATCTTAGAACCGCAAAATACCGATGCCGGACCAAACTCTCCATTAAATCCCTCTAGCCCGATATTAGATCACCCAAATACTGATACTGGGCCGCCTTCTCCACCTGCTCCAGTCGTTTCTAACATTGAGATATCTCCGTCAGCCCCAGACCCCAGCCCTGAAGTATCTTCAAAACCACATACTGGCACACTGGGATCTAACAATGGTCTGTGGGCAATCACTTTTTCTCCATTTAATGATGATGGAACGTGCAAAGGTGAGACTGCTGTTTGGGAAGATGTGCGCTTGATTCGTAGCGCTGGCTTCAAGGCAATTCGTGTCTATGGTACTGAATGTTCGGGAATTGAACACGTCAGTTCTGCCGCCAGTTTTCACGGACTAAAACTTATTATCGGTATATTTATCAGCGAATCTGGTTGTTCTGGTGCTGCGGAGCAAGTAACTCATATCACAAAATGGGCCAAATGGGAAATTGTCGAGCTAATTGTGATTGGAAACGAAGCCCTATTTAATGGCCATACTTCTCCAGATGAGCTCGCAAGATTTATTAGCTCAACCAGAAATACACTACGATCCTCTGGTTACAATGGACCTTGCACAACAGCTGAGCCTCTCAATATCTGGCAGCAAAGCTCGGATGTATTGTGTGGTGCAGTTGATATCGTTGGATGTAACATTCATCCATTTTTCAATCCAGAAGTTGACGCTAGTCATGCCGGACCTTTCGTCAAGAGTCAGCTCGAAATTGTTAATAACATTTGTCCAAGCAAATATGGTATCAACCTCGAATGTGGATGGCCTTCGGCTGGCGAGTGCAACGGCAAGGCTTGTCCTGGTGAGTCGGAGCAAAAAATTGCTGTGGAAAGCATTCAGTCATTTGCTGGCAACGTGTCGGTAATGTTTACATACACCAACGATAAATGGAAAGACCCAGGCCCCCTCAAGATTGAGCAGAGTTTCGGATTAATTAAGCTCCTGAATAGCCACTAG | 33% | – |
| 167 (nucleic acid, listed as Golovinomyces orontii, listed as DNA) ATGCTTCTAACTAAGATTCACACCGCACCAGAACTAGACTCATTTACAGCACTCGAAGATCATCAATCAAAGACTCCCGACAAATTTTATGAAACGAAACCTGTCCTATACTTTCATGACAATAATGCCAGAGCTCTTATCGTCAAAAGTCAGCTTGTCAAATTACCCATCTGTGAATTAAATTCTTCGGAAAATGAACCTGAATCAAGCCCAAAAATAGCTAATGTCGAAGTGTTTGTCAATTCCCAGAAATTGATTATATTTAACCCTGTCGAATGCATTGGCTACGCTATTCCCTACTCAGCGATTACTCTTCATGCTATCCAGAGATTAAAAGATCCAATAGATTCATATCTGGAAATACAAGGACTCTACATGCAAATAAATATATCAGATTGCAGTGGTGACGAACAACAAGATGAAGATTCGACCTATGTAGATCTAACTCTCATACCATCACTCAACTCTGATACCATAACTAAACCAAGAATCCAAACACTCTACGAGGCGGTCTCTGCCTGTTCCGACTTAAATCCTGACTTGAATCCGGAAGACGATGGGATAACTGAAGATGTAGGTGAAGAATCTAGGATAATATTTGAAGGCACTGATGGTCTTCCTGGTGTTTTCAACGGCGGATCAGATGGCAACCTCCCACCGCCGTTTCCTGGTAGTGGGGGATGGATAACAGCTGAGAATATGTCTCAATTTTTAGACGAAGAAGGTAATTGGATTGGGAAAAGCGATAACGGTGAGGATTCAATGGTTATCGGATAA | – | 39% |
| 123 (nucleic acid, listed as Golovinomyces orontii, listed as DNA) ATGTTGTGCTTCATTTCCATCTTCACAACAGCTCTCCTAATCTCTCCCTCCCTAGGAGTTAATTCAGCTCAGAACGGCGAAACTCCCGATGACGATTCATTAGGTTCTACGAAACACATGAACTTTGGCTCTGGTCTCTCTGAATTCAATGCTCATGAAGATATGTATGTTCCTGCCATGGATCTGAATGGGTTTAGAATAAAGCGACGACATTTTCAAAATGAAGGCTATTACTGCAGCAAATCGCGCAATCACCTCGAATTTACAAATCAATCTTTCGTGAAGAATGAAGCTAAGAAGGCATGCAAGGGTCTTGAAAGGTCAAAACACGAACACAAACACGAACATGAACATGAGCACGAAGATAAACATGAATATAAAGAATATGAAGAAGAAGAAGAAGAAGAAGAAGAAGAAGAAGAAGAAGAAAATAAAATAAAAAAAGGAAAGAAAGGAAAGAAACATTCCGATTACCCTCATCCATACAATGCAGTCAAATATGTAAAATATTCCCCACCATACTTCGAACACCGAATCCATGATGTGAAGAAAAATAAATCAGGTCTGAGCGTCATCATAGATATCGACTGTCATATTGTTGATGTTGTTGCTCTCAACCAAGATAAACGATACCATCAATGTGCCCGTGCATGA | 32% | 38% |
| 124 (nucleic acid, listed as Golovinomyces orontii, listed as DNA) ATGTTCCTCAGAGCTTCGTTGACCTTCTGGGCTCTCTTGGCCACAGAGATAAGTCTGTCCACGACAGCCTCCGTTAGACGACTGGAGAATCGCGAGGTTGTTGACGATATTAATGACAATGGAATCATGATTGAGTGGGCAAGATGCAAAGGTAGACACTACGATAAAGATGAAATATATGAAACGCTCAAACAAGCTTGTGAGACGAAAAATTCATCTACCATTTTTGAAAAAGCCGTCAATCTTCGTCCACATATCCCATCGTCATCAGAGAAGTATCATCATGAGATCAACCCTCCCTACTACGCGTACTCTCTGCATGATACCGTATTCAAAGATAAACTACATCCAATCGATGTTATCGTGATGAACGATGAATGTAAGCTGGCTGGTGTACTCATGGAGACCACCAAGATCAGCTGCAACGACGACACGTGCGGCTCCGAACCCCGGTACAAAGATTGTGAGATCCGATTAACGAAAACCGCTCCGACGTCGACAGAGACGACTCAGGTTGCGGAATTGTCTTGA | 33% | – |
| 146 (nucleic acid, listed as Golovinomyces orontii, listed as DNA) ATGGCTCAATCCCCGGACAGTAAGGTAGAGAAAGTCTTTACGACAAATCACCTCGGAATTGGCAGGCTCCAAGGAAAGAACGCAATTGTGACCGGAGCAGCAGGTGGTATCGGCTTGGAAACATGCATTTTATTCGCCAGAGAAGGTGCCAATGTTCTTTTGGCCGACATTTCAGCTCCAGCCCTAGAAAAAGCATATGCCAAGATTGCTCAACTTGTACCTTCGGCTCGCAAGGTCGAGAAAATGCTATGTGATGTTTCCAAGGAGGGAGACGTCAAAGCTATGGTTGACCATGTTGATTCATGGGGTGGTGTTGACATTATTTTTAACAATGCGGGCATAATGCATGCTGATGATGCTGATGCAGTTGACACCCCTGAGAAGATTTGGGATCTCACTCAGGCTATCAACGTGAAAGGTGTCTGGTTCGGCTGCAAACATGCAGTCATCTCATTTCGAAAGCATAAAAAGTCAAAGGGCTGTGTCATCAATACAGCCTCTGTTGTTGCTTTGGTGGGATCTGCAACTCCACAACTTGCCTACACCGCGAGTAAAGGAGCTGTTCTAGCTCTAACGCGGGAGCTTGCAATTGTACATGCACGCGAGGCGCCGTTGAACACTCCCTTACTTCAGGATTGGCTTGGAGATGACCAGCCTAAGCGACTTCGTCGGGAAATTCATTTTCCATGTGGCCGCTTCGGCGAAGCTGTTGAACAAGCTCGTGCTGTTCTTTTCTTAGCTTCCGATGACGCCAATTTCATTAATGGGCAGGAATTTGTTGTCGATGGCGGAATGACTAAAGCATATGTGACTCCAGAAGGTCCCCCGACCGAGGCGCCTATAAATAACTCATTACTCTCTGAGCCAATCGATAATTTTAAGACCACTAACTCATCAGACATGGGAGTTTGA | 42% | 63% |
| 140 (nucleic acid, listed as Golovinomyces orontii, listed as DNA) ATGCAATTCACTCAACTTCTCATCTTAGCCTTCGTCGCTTGCGTGGCTGCTACACCATCAGGATTGAACTTTTACGCGCGAAGAACTGACGGTGGAGACGACGAATCACCACAGACATGTACTCAGGCCCTACAAGCTATTCCCAAGTGCGCTCTGAGTTGCATCACACAACCCCCAATCGACGCCGGTTGCAAATCAGCTGCTGACTTCGCTTGCACCTGTGAGAAAAAGACCCAAAAACAAATTACAAAGGCAGAAACTCCTTGTGTTCTCAAGGCTTGCGGACTAAAAGAGGCACTTGCTGCTTCTAAGGCTGGAAAAGCTGTATGTGAGGCTTGCAACACATCCCCAAGCGACCCATCCGACGGTCACGGTGACGACGGAGATGACGATTCATACGATAGCTCTGATTCTGAATAA | 60% | 37% |
| 87 (nucleic acid, listed as Golovinomyces orontii, listed as DNA) ATGCCTCTACGAAGAATACTAAAGAAGTCAAAATACGCCAAAAAGAGTCCAGAAGAAGAGACTGTCATAACACCCATCTTATTTATGCGTAGCGACACAAAAACAGAGGAGATTATTTATCCACCTAGTTATCCTGATCATGAAGAATCCTTACGCAGTAAAAAGGGGCGAAACAAGAAGGAAATACCTAGGACCCCTTCGGAATCTCGTAAATCATCTCTTAGACTCAAGCCAAACTTTCTGAAAAACCAGAAATCCGAAAAGGTGCCAGAAAATCTGCCAGATATAGAGATCATTGCTGATCAGGTCGAGAGGAGAATCAGGGCACAATGGGAAAAACGTGCGACAATTCTAGCCAAAAGAAATGAGGAAACAACAGCTAAGTATCTATCAATCACTGACGATAAACATGCAAAGGAGGTGAGAATGGCGAGAGAGCTGGACGAGGCAAATTCGGCCAACGATAACATTATAGAAGCAATTAGACTACATGAAGCGGGGAGCCGGCTGGCGGAGTTCCAAAATGAGAATAATACCCTCAGTCAAGTATTGTACGGTCTTTCTTTAAGGTACGCATGGCTGGGGATGTACTCCAGATCCGGAAAAGGCACTCAAATACCTTCAGCTGCAGCATCGTGTGCAGCCTCAATCGAGGATTTAGCACTTAGGGCGGGGAAGAAAAGTGGAGGAGCAGCGAAAGATGAATTAGTTCTTGCTATTTACGAGCTCGCAAATAGTTTTAGACATGGCTGGGGAATTCCGATCGACCGAGTGGCTGCGAAACAGTACTATGAGACGGCAGCTAATTTGGGTGATACGGACGCTATGAATGAAGTGGCCCGATGTTATGCCGAAGGAATCGGTTGCAAGAAAGACATGTTTGTGGCTGCTAAATACTACAGGATGGCTGAGAGTAAGGGTAACAAAATCATTGGAAACTCCTGGTACGTTGCAATTTTTGCTCTCTAA | – | 42% |
